First the molecules themselves.
B1: C10orf62 (parent)
chain: RALEEVEMKLQKNFLTQRENTIAG
B2: DFFB (parent)
chain: TLVEAIKEQDGREVDWEYFYGLLF

This passage reports protein stability index results from the supplement of paper PMC10567573.
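Further: lentivirally expressed fusions sorted by FACS into six bins by GFP to DsRed ratio, PSI derived from sequencing read proportions per bin multiplied by bin number.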

The first data set covers variants of B1. Briefly: protein stability index of a GFP-peptide fusion (GPS, HEK-293T) (PSI 1-6); higher = more stable. To be noted: c terminus: a fixed tail appended.
As for RALEEVEMKLQKNFLTQRENTIAF [G24F], the protein stability index came out at 2.37.

For RALEEVEMKLQKNFLTQRENTIAT [G24T], the protein stability index amounted to 3.76.

For the variant RALEEVEMKLQKNFLTQRENTIAK [G24K], the protein stability index came to 4.19. For RALEEVEMKLQKNFLTQRENTIAS [G24S], the protein stability index was determined as 3.43.

With RALEEVEMKLQKNFLTQRENTIAQ [G24Q], the protein stability index is 3.6. With RALEEVEMKLQKNFLTQRENTIAN [G24N], the protein stability index was 3.45. With RALEEVEMKLQKNFLTQRENTIAM [G24M], the protein stability index worked out at 3.08. The same measure, in the same setting: in the case of RALEEVEMKLQKNFLTQRENTIAH [G24H] it was 3.07; in that of RALEEVEMKLQKNFLTQRENTIAW [G24W], 3.48; in that of RALEEVEMKLQKNFLTQRENTIAL [G24L], 2.65. Regarding RALEEVEMKLQKNFLTQRENTIAI [G24I], the protein stability index is 2.31. In the case of RALEEVEMKLQKNFLTQRENTIAV [G24V], the protein stability index turned out to be 2.85. With RALEEVEMKLQKNFLTQRENTIAD [G24D], the protein stability index was 4.37. In the case of RALEEVEMKLQKNFLTQRENTIAP [G24P], the protein stability index is 3.71. On the same count and under the same terms, in the case of RALEEVEMKLQKNFLTQRENTIAR [G24R] it was 3.5; in that of RALEEVEMKLQKNFLTQRENTIAY [G24Y], 2.18; in that of RALEEVEMKLQKNFLTQRENTIAE [G24E], 4.04.

The variants in another data set derive from B2. The description is as above. To be noted: c terminus: a fixed tail appended.
As to TEVEAIKEQDGREVDWEYFYGLLF [L2E], the protein stability index worked out at 3.08.

Regarding TYVEAIKEQDGREVDWEYFYGLLF [L2Y], the protein stability index turned out to be 1.71. As to TGVEAIKEQDGREVDWEYFYGLLF [L2G], the protein stability index was determined as 2.5. Turning to TVVEAIKEQDGREVDWEYFYGLLF [L2V], the protein stability index came to 2.4. TCVEAIKEQDGREVDWEYFYGLLF [L2C]: the protein stability index came to 2.16.

TDVEAIKEQDGREVDWEYFYGLLF [L2D]: the protein stability index came out at 2.17. Consider TIVEAIKEQDGREVDWEYFYGLLF [L2I], for which the protein stability index turned out to be 2.35. On to TAVEAIKEQDGREVDWEYFYGLLF [L2A], for which the protein stability index was 3.03. On to TWVEAIKEQDGREVDWEYFYGLLF [L2W], for which the protein stability index turned out to be 1.92. For TSVEAIKEQDGREVDWEYFYGLLF [L2S], the protein stability index worked out at 3.15.

For the variant TTVEAIKEQDGREVDWEYFYGLLF [L2T], the protein stability index is 2.2. TMVEAIKEQDGREVDWEYFYGLLF [L2M]: the protein stability index is 2.15. In the case of THVEAIKEQDGREVDWEYFYGLLF [L2H], the protein stability index came out at 1.92. For the variant TRVEAIKEQDGREVDWEYFYGLLF [L2R], the protein stability index was found to be 2.77. In the case of TNVEAIKEQDGREVDWEYFYGLLF [L2N], the protein stability index came out at 2.31. Turning to TQVEAIKEQDGREVDWEYFYGLLF [L2Q], the protein stability index was found to be 1.41. As to TFVEAIKEQDGREVDWEYFYGLLF [L2F], the protein stability index is 1.95.

For TPVEAIKEQDGREVDWEYFYGLLF [L2P], the protein stability index worked out at 2.41. In the case of KLVEAIKEQDGREVDWEYFYGLLF [T1K], the protein stability index is 2.37.

For the variant LLVEAIKEQDGREVDWEYFYGLLF [T1L], the protein stability index turned out to be 1.58. In the case of WLVEAIKEQDGREVDWEYFYGLLF [T1W], the protein stability index was determined as 1.65.

For the variant YLVEAIKEQDGREVDWEYFYGLLF [T1Y], the protein stability index came out at 2.13. Take ALVEAIKEQDGREVDWEYFYGLLF [T1A]: the protein stability index worked out at 2.32. Consider MLVEAIKEQDGREVDWEYFYGLLF [T1M], for which the protein stability index turned out to be 1.31.

As for ELVEAIKEQDGREVDWEYFYGLLF [T1E], the protein stability index was 2.9. As to QLVEAIKEQDGREVDWEYFYGLLF [T1Q], the protein stability index was determined as 2.37.

Consider GLVEAIKEQDGREVDWEYFYGLLF [T1G], for which the protein stability index was 2.05. On to DLVEAIKEQDGREVDWEYFYGLLF [T1D], for which the protein stability index turned out to be 2.24. As for FLVEAIKEQDGREVDWEYFYGLLF [T1F], the protein stability index came to 2.56.

Consider NLVEAIKEQDGREVDWEYFYGLLF [T1N], for which the protein stability index stood at 2.02. Still for that read-out and setting: in the case of PLVEAIKEQDGREVDWEYFYGLLF [T1P] it was 2.54; in that of HLVEAIKEQDGREVDWEYFYGLLF [T1H], 1.89; in that of SLVEAIKEQDGREVDWEYFYGLLF [T1S], 1.41. As to VLVEAIKEQDGREVDWEYFYGLLF [T1V], the protein stability index was found to be 3.13. With RLVEAIKEQDGREVDWEYFYGLLF [T1R], the protein stability index came out at 1.59.

Regarding TLAEAIKEQDGREVDWEYFYGLLF [V3A], the protein stability index was found to be 1.95. As for TLFEAIKEQDGREVDWEYFYGLLF [V3F], the protein stability index was 2.

On to TLSEAIKEQDGREVDWEYFYGLLF [V3S], for which the protein stability index was determined as 3.22. Turning to TLMEAIKEQDGREVDWEYFYGLLF [V3M], the protein stability index was determined as 2.28.

In the case of TLTEAIKEQDGREVDWEYFYGLLF [V3T], the protein stability index was 2.53. The same measure, in the same setting: the figure for TLDEAIKEQDGREVDWEYFYGLLF [V3D] is 2.65; for TLHEAIKEQDGREVDWEYFYGLLF [V3H] it is 2.16; for TLKEAIKEQDGREVDWEYFYGLLF [V3K] it is 2.88. On the same count and under the same terms, the figure for TLEEAIKEQDGREVDWEYFYGLLF [V3E] is 2.86; for TLNEAIKEQDGREVDWEYFYGLLF [V3N] it is 2.21.

For TLPEAIKEQDGREVDWEYFYGLLF [V3P], the protein stability index is 2.16. Take TLLEAIKEQDGREVDWEYFYGLLF [V3L]: the protein stability index came to 2.22. For TLIEAIKEQDGREVDWEYFYGLLF [V3I], the protein stability index was 3.34. On to TLREAIKEQDGREVDWEYFYGLLF [V3R], for which the protein stability index was 2.23. Regarding TLGEAIKEQDGREVDWEYFYGLLF [V3G], the protein stability index was 1.58. In the case of TLQEAIKEQDGREVDWEYFYGLLF [V3Q], the protein stability index came out at 1.88. On to TLYEAIKEQDGREVDWEYFYGLLF [V3Y], for which the protein stability index worked out at 1.39. Regarding TLWEAIKEQDGREVDWEYFYGLLF [V3W], the protein stability index is 1.76. In the case of TLCEAIKEQDGREVDWEYFYGLLF [V3C], the protein stability index was 1.94. As to TLVEEIKEQDGREVDWEYFYGLLF [A5E], the protein stability index is 2.29. Consider TLVEIIKEQDGREVDWEYFYGLLF [A5I], for which the protein stability index is 1.36.

Regarding TLVEHIKEQDGREVDWEYFYGLLF [A5H], the protein stability index amounted to 1.98. In the case of TLVECIKEQDGREVDWEYFYGLLF [A5C], the protein stability index came out at 1.95. Consider TLVEDIKEQDGREVDWEYFYGLLF [A5D], for which the protein stability index turned out to be 2.54. Still for that read-out and setting: in the case of TLVEFIKEQDGREVDWEYFYGLLF [A5F] it was 1.89; in that of TLVEGIKEQDGREVDWEYFYGLLF [A5G], 2.68. As for TLVCAIKEQDGREVDWEYFYGLLF [E4C], the protein stability index is 2.92. On the same count and under the same terms, in the case of TLVGAIKEQDGREVDWEYFYGLLF [E4G] it was 2.26; in that of TLVPAIKEQDGREVDWEYFYGLLF [E4P], 2.08. Consider TLVKAIKEQDGREVDWEYFYGLLF [E4K], for which the protein stability index is 2.99.

For the variant TLVLAIKEQDGREVDWEYFYGLLF [E4L], the protein stability index was 1.93.

For TLVIAIKEQDGREVDWEYFYGLLF [E4I], the protein stability index stood at 1.57.

In the case of TLVTAIKEQDGREVDWEYFYGLLF [E4T], the protein stability index worked out at 1.58. On to TLVSAIKEQDGREVDWEYFYGLLF [E4S], for which the protein stability index was determined as 2.62. On the same count and under the same terms, the figure for TLVDAIKEQDGREVDWEYFYGLLF [E4D] is 1.68; for TLVVAIKEQDGREVDWEYFYGLLF [E4V] it is 2.87; for TLVHAIKEQDGREVDWEYFYGLLF [E4H] it is 1.97. As to TLVWAIKEQDGREVDWEYFYGLLF [E4W], the protein stability index is 1.76.

TLVFAIKEQDGREVDWEYFYGLLF [E4F]: the protein stability index came to 2.38. With TLVQAIKEQDGREVDWEYFYGLLF [E4Q], the protein stability index is 1.97.

TLVAAIKEQDGREVDWEYFYGLLF [E4A]: the protein stability index worked out at 1.37. Consider TLVNAIKEQDGREVDWEYFYGLLF [E4N], for which the protein stability index was 2.11.
